Laboratory results: publication PMC10636135, “Computational design of highly efficient thermostable MHET hydrolases and dual enzyme system for PET recycling” (Communications Biology, 2023)

How the values were obtained:
MHET hydrolysis kinetics = substrate: O=C(O)c1ccc(C(=O)OCCO)cc1; assay: MHET hydrolysis kinetics; type: biochemical, unidentified prokaryotic organism; details: conditions in supplement; pH 7.5; 50.0 °C
Description: MHET hydrolysis kinetics on LCC-ICCG | (LCC-ICCG and FAST-PETase) had weak catalytic activities with regard to the hydrolysis of MHET

[1] = substrate: O=C(O)c1ccc(C(=O)OCCO)cc1; assay: initial rates, TPA by HPLC, Michaelis-Menten fit; type: biochemical, Pseudideonella sakaiensis; details: 50 mM sodium phosphate, pH 7.5, 50 °C
[2] = substrate: O=C(O)c1ccc(C(=O)OCCO)cc1; assay: initial rates, TPA by HPLC, Michaelis-Menten fit; type: biochemical, Geobacillus stearothermophilus; details: 50 mM sodium phosphate, pH 7.5, 50 °C, M3
Description: initial rates, TPA by HPLC, Michaelis-Menten fit on Est30 (1TQH scaffold; wild-type carboxylesterase) | single variants M1 (G130L) and M3 (G130F) (Table S13) had improved catalytic efficiencies

[3] = substrate: O=C(O)c1ccc(C(=O)OCCO)cc1; assay: initial rates, TPA by HPLC, Michaelis-Menten fit; type: biochemical, Geobacillus stearothermophilus; details: 50 mM sodium phosphate, pH 7.5, 50 °C, 10 min, 0.5 μM enzyme
Description: initial rates, TPA by HPLC, Michaelis-Menten fit on Est30 (1TQH scaffold; wild-type carboxylesterase)

[4] = substrate: O=C(O)c1ccc(C(=O)OCCO)cc1; assay: initial rates, TPA by HPLC, Michaelis-Menten fit; type: biochemical, Geobacillus stearothermophilus; details: 50 mM sodium phosphate, pH 7.5, 50 °C, 10 min, 0.5 μM enzyme; remark: listed apart in the source

B1: LCC-ICCG (unidentified prokaryotic organism; D238C/F243I/S283C/Y127G) (protein)
chain: QSNPYQRGPNPTRSALTADGPFSVATYTVSRLSVSGFGGGVIYYPTGTSLTFGGIAMSPGYTADASSLAWLGRRLASHGFVVLVINTNSRFDGPDSRASQLSAALNYLRTSSPSAVRARLDANRLAVAGHSMGGGGTLRIAEQNPSLKAAVPLTPWHTDKTFNTSVPVLIVGAEADTVAPVSQHAIPFYQNLPSTTPKVYVELCNASHIAPNSNNAAISVYTISWMKLWVDNDTRYRQFLCNVNDPALCDFRTNNRHCQ
MHET hydrolysis kinetics
  Km: 20.13 ± 3.69 mM
  kcat: 1.41 ± 0.13 s⁻¹

B2: FAST-PETase (Pseudideonella sakaiensis; D186H/N233K/R224Q/R280A/S121E) (protein)
chain: QTNPYARGPNPTAASLEASAGPFTVRSFTVSRPSGYGAGTVYYPTNAGGTVGAIAIVPGYTARQSSIKWWGPRLASHGFVVITIDTNSTLDQPESRSSQQMAALRQVASLNGTSSSPIYGKVDTARMGVMGWSMGGGGSLISAANNPSLKAAAPQAPWHSSTNFSSVTVPTLIFACENDSIAPVNSSALPIYDSMSQNAKQFLEIKGGSHSCANSGNSNQALIGKKGVAWMKRFMDNDTRYSTFACENPNSTAVSDFRTANCS
[1]
  Km: 33.87 ± 2.82 mM
  kcat: 2.34 ± 0.14 s⁻¹

B3: Est30 (1TQH scaffold; wild-type carboxylesterase) (Geobacillus stearothermophilus; G129F) (protein)
chain: MKIVPPKPFFFEAGERAVLLLHGFTGNSADVRMLGRFLESKGYTCHAPIYKGHGVPPEELVHTGPDDWWQDVMNGYEFLKNKGYEKIAVAGLSLGGVFSLKLGYTVPIEGIVTMCAPMYIKSEETMYEFVLEYAREYKKREGKSEEQIEQEMEKFKQTPMKTLKALQELIADVRDHLDLIYAPTFVVQARHDEMINPDSANIIYNEIESPVKQIKWYEQSGHVITLDQEKDQLHEDIYAFLESLDW
notes: E. coli BL21(DE3), pET-22b(+) NdeI/XhoI, C-terminal His6 tag kept, HisTrap purified
[2]
  Km: 1.12 ± 0.45 mM
  kcat: 0.75 ± 0.05 s⁻¹

B4: Est30 (1TQH scaffold; wild-type carboxylesterase) (Geobacillus stearothermophilus) (protein)
chain: MKIVPPKPFFFEAGERAVLLLHGFTGNSADVRMLGRFLESKGYTCHAPIYKGHGVPPEELVHTGPDDWWQDVMNGYEFLKNKGYEKIAVAGLSLGGVFSLKLGYTVPIEGIVTMCAPMYIKSEETMYEGVLEYAREYKKREGKSEEQIEQEMEKFKQTPMKTLKALQELIADVRDHLDLIYAPTFVVQARHDEMINPDSANIIYNEIESPVKQIKWYEQSGHVITLDQEKDQLHEDIYAFLESLDW
notes: as for B3
[3]
  Km: 8.98 ± 2.49 mM
  kcat: 1.17 ± 0.14 s⁻¹
  kcat/Km: 130 M⁻¹ s⁻¹

B5: Est30 (1TQH scaffold; wild-type carboxylesterase) (Geobacillus stearothermophilus; G129L) (protein)
chain: MKIVPPKPFFFEAGERAVLLLHGFTGNSADVRMLGRFLESKGYTCHAPIYKGHGVPPEELVHTGPDDWWQDVMNGYEFLKNKGYEKIAVAGLSLGGVFSLKLGYTVPIEGIVTMCAPMYIKSEETMYELVLEYAREYKKREGKSEEQIEQEMEKFKQTPMKTLKALQELIADVRDHLDLIYAPTFVVQARHDEMINPDSANIIYNEIESPVKQIKWYEQSGHVITLDQEKDQLHEDIYAFLESLDW
notes: as for B3
[3]; M1
  Km: 5.36 ± 1.13 mM
  kcat: 2.97 ± 0.21 s⁻¹
  kcat/Km: 550 M⁻¹ s⁻¹

B6: Est30 (1TQH scaffold; wild-type carboxylesterase) (Geobacillus stearothermophilus; I170K) (protein)
chain: MKIVPPKPFFFEAGERAVLLLHGFTGNSADVRMLGRFLESKGYTCHAPIYKGHGVPPEELVHTGPDDWWQDVMNGYEFLKNKGYEKIAVAGLSLGGVFSLKLGYTVPIEGIVTMCAPMYIKSEETMYEGVLEYAREYKKREGKSEEQIEQEMEKFKQTPMKTLKALQELKADVRDHLDLIYAPTFVVQARHDEMINPDSANIIYNEIESPVKQIKWYEQSGHVITLDQEKDQLHEDIYAFLESLDW
notes: as for B3
[4]; M2, substrate range 2-20 mM
  Km: 53.70 ± 34.77 mM
  kcat: 36 ± 18.2 s⁻¹
  kcat/Km: 670 M⁻¹ s⁻¹

B7: Est30 (1TQH scaffold; wild-type carboxylesterase) (Geobacillus stearothermophilus; G129L/I170K) (protein)
chain: MKIVPPKPFFFEAGERAVLLLHGFTGNSADVRMLGRFLESKGYTCHAPIYKGHGVPPEELVHTGPDDWWQDVMNGYEFLKNKGYEKIAVAGLSLGGVFSLKLGYTVPIEGIVTMCAPMYIKSEETMYELVLEYAREYKKREGKSEEQIEQEMEKFKQTPMKTLKALQELKADVRDHLDLIYAPTFVVQARHDEMINPDSANIIYNEIESPVKQIKWYEQSGHVITLDQEKDQLHEDIYAFLESLDW
notes: as for B3
[4]; M8 (KL-MHETase)
  Km: 4.56 ± 0.75 mM
  kcat: 21.4 ± 1.12 s⁻¹
  kcat/Km: 4700 M⁻¹ s⁻¹

B8: Est30 (1TQH scaffold; wild-type carboxylesterase) (Geobacillus stearothermophilus; G129F/I170K/M126S) (protein)
chain: MKIVPPKPFFFEAGERAVLLLHGFTGNSADVRMLGRFLESKGYTCHAPIYKGHGVPPEELVHTGPDDWWQDVMNGYEFLKNKGYEKIAVAGLSLGGVFSLKLGYTVPIEGIVTMCAPMYIKSEETSYEFVLEYAREYKKREGKSEEQIEQEMEKFKQTPMKTLKALQELKADVRDHLDLIYAPTFVVQARHDEMINPDSANIIYNEIESPVKQIKWYEQSGHVITLDQEKDQLHEDIYAFLESLDW
notes: as for B3
[4]; M13
  Km: 2.59 ± 0.41 mM
  kcat: 21 ± 0.83 s⁻¹
  kcat/Km: 8110 M⁻¹ s⁻¹

B9: Est30 (1TQH scaffold; wild-type carboxylesterase) (Geobacillus stearothermophilus; G129L/I170K/M126S) (protein)
chain: MKIVPPKPFFFEAGERAVLLLHGFTGNSADVRMLGRFLESKGYTCHAPIYKGHGVPPEELVHTGPDDWWQDVMNGYEFLKNKGYEKIAVAGLSLGGVFSLKLGYTVPIEGIVTMCAPMYIKSEETSYELVLEYAREYKKREGKSEEQIEQEMEKFKQTPMKTLKALQELKADVRDHLDLIYAPTFVVQARHDEMINPDSANIIYNEIESPVKQIKWYEQSGHVITLDQEKDQLHEDIYAFLESLDW
notes: as for B3
[4]; M14 (KLS-MHETase)
  Km: 1.73 ± 0.24 mM
  kcat: 21.8 ± 0.62 s⁻¹
  kcat/Km: 12600 M⁻¹ s⁻¹
